According to patent US5723436, “Calcineurin interacting protein compositions and methods” (The Board of Trustees of the Leland Stanford Junior …, dated 1998):

Biological target: GAD (GAL4 activation domain alone, from pGAD) (yeast, UniProt P04386)
Assay: yeast GAL4 two-hybrid, fusion tested against the complementary GAL4 domain not fused to a second protein

B1: GBT-A1 (G4BD-CNA1) (other)
chain: MKLLSSIEQACDICRLKKLKCSKEKPKCAKCLKNNWECRYSPKTKRSPLTRAHLTEVESRLERLEQLFLLIFPREDLDMILKMDSLQDIKALLTGLFVQDNVNKDAVTDRLASVETDMPLTLRQHRISATSSSEESSNKGQRQLTVSMSKDLNSSRIKIIKPNDSYIKVDRKKDLTKYELENGKVISTKDRSYASVPAITGKIPSDEEVFDSKTGLPNHSFLREHFFHEGRLSKEQAIKILNMSTVALSKEPNLLKLKAPITICGDIHGQYYDLLKLFEVGGDPAEIDYLFLGDYVDRGAFSFECLIYLYSLKLNNLGRFWMLRGNHECKHLTSYFTFKNEMLHKYDMEVYDACCRSFNVLPLAALMNGQYFCVHGGISPELKSVEDVNKINRFREIPSRGLMCDLLWADPVENYDDARDGSEFDQSEDEFVPNSLRGCSFAFTFKASCKFLKANGLLSIIRAHEAQDAGYRMYKNNKVTGFPSLITMFSAPNYLDTYHNKAAVLKYEENVMNIRQFHMSPHPYWLPDFMDVFTWSLPFVGEKVTSMLVSILNICSEQELDPESEPKAAEETVKARANATKETGTPSDEKASSAILEDETRRKALRNKILAIAKVSRMFSVLREESEKVEYLKTMNAGVLPRGALARGTEGLNETLSTFEKARKEDLINEKLPPSLSEVEQEKIKYYEKILKGAEKKPQL
  binding result: no binding

B2: GBT-A2 (G4BD-CNA2) (other)
chain: MKLLSSIEQACDICRLKKLKCSKEKPKCAKCLKNNWECRYSPKTKRSPLTRAHLTEVESRLERLEQLFLLIFPREDLDMILKMDSLQDIKALLTGLFVQDNVNKDAVTDRLASVETDMPLTLRQHRISATSSSEESSNKGQRQLTVSMSSDAIRNTEQINAAIKIIENKTERPQSSTTPIDSKASTVAAANSTATETSRDLTQYTLDDGRVVSTNRRIMNKVPAITSHVPTDEELFQPNGIPRHEFLRDHFKREGKLSAAQAARIVTLATELFSKEPNLISVPAPITVCGDIHGQYFDLLKLFEVGGDPATTSYLFLGDYVDRGSFSFECLIYLYSLKLNFNDHFWLLRGNHECKHLTSYFTFKNEMLHKYNLDIYEKCCESFNNLPLAALMNGQYLCVHGGISPELNSLQDINNLNRFREIPSHGLMCDLLWADPIEEYDEVLDKDLTEEDIVNSKTMVPHHGKMAPSRDMFVPNSVRGCSYAFTYRAACHFLQETGLLSIIRAHEAQDAGYRMYKNTKTLGFPSLLTLFSAPNYLDTYNNKAAILKYENNVMNIRQFNMTPHPYWLPDFMDVFTWSLPFVGEKVTEMLVAILNICTEDELENDTPVIEELVGTDKKLPQAGKSEATPQPATSASPKHASILDDEHRRKALRNKILAVAKVSRMYSVLREETNKVQFLKDHNSGVLPRGALSNGVKGLDEALSTFERARKHDLINEKLPPSLDELKNENKKYYEKVWQKVHEHDAKNDSK
  binding result: no binding
